This note sets out measurements from paper PMC11992174, “Structural Insights into Bortezomib-Induced Activation of the Caseinolytic Chaperone-Protease System in Mycobacterium tuberculosis” (Nature Communications, 2025).

This data set concerns the molecule itself. As to the kind of experiment: cryo-EM structure.

B1: MtbClpX^E187Q (enzyme)
chain: not shown
notes: also called Walker B motif mutant MtbClpX
Take B1: the “stoichiometry N” value was determined as 6.

For orientation: stoichiometry N means a count of units in the complex or per binding partner.
